# Measured values: the supplement of paper PMC5998384
# Assays:
# [1] = system: HeLa Kyoto; experiment: thermal stability score vs G1/S (z-score of summed log2 fold changes over temperatures); higher = more thermally stable than in G1/S
# [2] = system: HeLa Kyoto; experiment: solubility change mitosis vs G1/S (difference of NP-40 vs SDS log2 ratios) (log2 ratio difference); higher = more soluble in mitosis
# [3] = system: HeLa Kyoto; experiment: melting temperature (median over replicates), in situ; higher = more thermally stable
# [4] = system: HeLa Kyoto; experiment: solubility in G1/S (NP-40 vs SDS abundance) (log2 ratio); higher = more soluble; settings: cell cycle stage: G1/S
# [5] = cell cycle stage: early G1 (4.5 h after nocodazole release)
# 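For melting temperature (median over replicates), in situ in this document: HeLa Kyoto cells synchronized by double thymidine or nocodazole block, proteins quantified by TMT10plex mass spectrometry, three independent biological replicates.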
# 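For solubility change mitosis vs G1/S (difference of NP-40 vs SDS log2 ratios) in this document: synchronized HeLa Kyoto cells (double thymidine block for G1/S, nocodazole release for mitosis), protein amounts in NP-40 versus SDS lysates quantified by mass spectrometry, three biological replicates.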
# 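For solubility in G1/S (NP-40 vs SDS abundance) in this document: HeLa Kyoto cells arrested at G1/S by double thymidine block, proteins quantified by TMT10plex mass spectrometry in mild NP-40 versus SDS extracts, three biological replicates.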
# 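For thermal stability score vs G1/S (z-score of summed log2 fold changes over temperatures) in this document: synchronized HeLa Kyoto cells, proteins quantified by TMT10plex mass spectrometry, three biological replicates, mitosis taken 0.5 h after nocodazole release, G1/S directly after double thymidine block.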
Sequence,"thermal stability score [1, 5]",thermal stability score ([1]; cell cycle stage: mitosis),solubility change mitosis (log2) [2],melting temperature ([3]; cell cycle stage: G1/S),melting temperature ([3]; cell cycle stage: mitosis),solubility in G1/S (log2) [4]
MTKKRKRQHDFQKVKLKVGKKKPKLQNATPTNFKTKTIHLPEQLKEDGTLPTNNRKLNIKDLLSQMHHYNAGVKQSALLGLKDLLSQYPFIIDAHLSNILSEVTAVFTDKDANVRLAAVQLLQFLAPKIRAEQISPFFPLVSAHLSSAMTHITEGIQEDSLKVLDILLEQYPALITGRSSILLKNFVELISHQQLSKGLINRDRSQSWILSVNPNRRLTSQQWRLKVLVRLSKFLQALADGSSRLRESEGLQEQKENPHATSNSIFINWKEHANDQQHIQVYENGGSQPNVSSQFRLRYLVGGLSGVDEGLSSTENLKGFIEIIIPLLIECWVEAVPPQLATPVGNGIEREPLQVMQQVLNIISLLWKLSKQQDETHKLESWLRKNYLIDFKHHFMSRFPYVLKEITKHKRKEPNKSIKHCTVLSNNIDHLLLNLTLSDIMVSLANASTLQKDCSWIEMIRKFVTETLEDGSRLNSKQLNRLLGVSWRLMQIQPNREDTETLIKAVYTLYQQRGLILPVRTLLLKFFSKIYQTEELRSCRFRYRSKVLSRWLAGLPLQLAHLGSRNPELSTQLIDIIHTAAARANKELLKSLQATALRIYDPQEGAVVVLPADSQQRLVQLVYFLPSLPADLLSRLSRCCIMGRLSSSLAAMLIGILHMRSSFSGWKYSAKDWLMSDVDYFSFLFSTLTGFSKEELTWLQSLRGVPHVIQTQLSPVLLYLTDLDQFLHHWDVTEAVFHSLLVIPARSQNFDILQSAISKHLVGLTVIPDSTAGCVFGVICKLLDHTCVVSETLLPFLASCCYSLLYFLLTIEKGEAEHLRKRDKLWGVCVSILALLPRVLRLMLQSLRVNRVGPEELPVVGQLLRLLLQHAPLRTHMLTNAILVQQIIKNITTLKSGSVQEQWLTDLHYCFNVYITGHPQGPSALATVY [TEX10],-1.74,-4.37,0.921,54.3 °C,52 °C,-1.92
MTKREAEELIEIEIDGTEKAECTEESIVEQTYAPAECVSQAIDINEPIGNLKKLLEPRLQCSLDAHEICLQDIQLDPERSLFDQGVKTDGTVQLSVQVISYQGIEPKLNILEIVKPADTVEVVIDPDAHHAESEAHLVEEAQVITLDGTKHITTISDETSEQVTRWAAALEGYRKEQERLGIPYDPIQWSTDQVLHWVVWVMKEFSMTDIDLTTLNISGRELCSLNQEDFFQRVPRGEILWSHLELLRKYVLASQEQQMNEIVTIDQPVQIIPASVQSATPTTIKVINSSAKAAKVQRAPRISGEDRSSPGNRTGNNGQIQLWQFLLELLTDKDARDCISWVGDEGEFKLNQPELVAQKWGQRKNKPTMNYEKLSRALRYYYDGDMICKVQGKRFVYKFVCDLKTLIGYSAAELNRLVTECEQKKLAKMQLHGIAQPVTAVALATASLQTEKDN [GABPA],0.986,1.79,-0.178,48 °C,49.9 °C,0.0182
MTLDVGPEDELPDWAAAKEFYQKYDPKDVIGRGVSSVVRRCVHRATGHEFAVKIMEVTAERLSPEQLEEVREATRRETHILRQVAGHPHIITLIDSYESSSFMFLVFDLMRKGELFDYLTEKVALSEKETRSIMRSLLEAVSFLHANNIVHRDLKPENILLDDNMQIRLSDFGFSCHLEPGEKLRELCGTPGYLAPEILKCSMDETHPGYGKEVDLWACGVILFTLLAGSPPFWHRRQILMLRMIMEGQYQFSSPEWDDRSSTVKDLISRLLQVDPEARLTAEQALQHPFFERCEGSQPWNLTPRQRFRVAVWTVLAAGRVALSTHRVRPLTKNALLRDPYALRSVRHLIDNCAFRLYGHWVKKGEQQNRAALFQHRPPGPFPIMGPEEEGDSAAITEDEAVLVLG [PHKG2],-0.266,0.0815,-0.298,50.4 °C,50.7 °C,-0.0283
MTLQWAAVATFLYAEIGLILIFCLPFIPPQRWQKIFSFNVWGKIATFWNKAFLTIIILLIVLFLDAVREVRKYSSVHTIEKSSTSRPDAYEHTQMKLFRSQRNLYISGFSLFFWLVLRRLVTLITQLAKELSNKGVLKTQAENTNKAAKKFMEENEKLKRILKSHGKDEECVLEAENKKLVEDQEKLKTELRKTSDALSKAQNDVMEMKMQSERLSKEYDQLLKEHSELQDRLERGNKKRL [BCAP29],-4.11,-5.19,-0.00377,55.3 °C,52.6 °C,-0.242
MTPLCPRPALCYHFLTSLLRSAMQNARGARQRAEAAVLSGPGPPLGRAAQHGIPRPLSSAGRLSQGCRGASTVGAAGWKGELPKAGGSPAPGPETPAISPSKRARPAEVGGMQLRFARLSEHATAPTRGSARAAGYDLYSAYDYTIPPMEKAVVKTDIQIALPSGCYGRVAPRSGLAAKHFIDVGAGVIDEDYRGNVGVVLFNFGKEKFEVKKGDRIAQLICERIFYPEIEEVQALDDTERGSGGFGSTGKN [DUT],0.243,-0.204,-0.0703,53.2 °C,53.5 °C,0.483
MTPPPPPPPPPGPDPAADPAADPCPWPGSLVVLFGATAGALGRDLGSDETDLILLVWQVVEPRSRQVGTLHKSLVRAEAAALSTQCREASGLSADSLARAEPLDKVLQQFSQLVNGDVALLGGGPYMLCTDGQQLLRQVLHPEASRKNLVLPDMFFSFYDLRREFHMQHPSTCPARDLTVATMAQGLGLETDATEDDFGVWEVKTMVAVILHLLKEPSSQLFSKPEVIKQKYETGPCSDSTVPCPYSSKADVVDSETVVRARGLPWQSSDQDVARFFKGLNVARGGVALCLNAQGRRNGEALIRFVDSEQRDLALQRHKHHMGVRYIEVYKATGEEFVKIAGGTSLEVARFLSREDQVILRLRGLPFSAGPTDVLGFLGPECPVTGGTEGLLFVRHPDGRPTGDAFALFACEELAQAALRRHKGMLGKRYIELFRSTAAEVQQVLNRYASGPLLPTLTAPLLPIPFPLAPGTGRDCVRLRGLPYTATIEDILSFLGEAAADIRPHGVHMVLNQQGRPSGDAFIQMTSAERALAAAQRCHKKVMKERYVEVVPCSTEEMSRVLMGGTLGRSGMSPPPCKLPCLSPPTYTTFQATPTLIPTETAALYPSSALLPAARVPAAPTPVAYYPGPATQLYLNYTAYYPSPPVSPTTVGYLTTPTAALASAPTSVLSQSGALVRMQGVPYTAGMKDLLSVFQAYQLPADDYTSLMPVGDPPRTVLQAPKEWVCL [ESRP2],1.55,2.39,0.0705,45.2 °C,47.7 °C,0.0652
MTPPRLFWVWLLVAGTQGVNDGDMRLADGGATNQGRVEIFYRGQWGTVCDNLWDLTDASVVCRALGFENATQALGRAAFGQGSGPIMLDEVQCTGTEASLADCKSLGWLKSNCRHERDAGVVCTNETRSTHTLDLSRELSEALGQIFDSQRGCDLSISVNVQGEDALGFCGHTVILTANLEAQALWKEPGSNVTMSVDAECVPMVRDLLRYFYSRRIDITLSSVKCFHKLASAYGARQLQGYCASLFAILLPQDPSFQMPLDLYAYAVATGDALLEKLCLQFLAWNFEALTQAEAWPSVPTDLLQLLLPRSDLAVPSELALLKAVDTWSWGERASHEEVEGLVEKIRFPMMLPEELFELQFNLSLYWSHEALFQKKTLQALEFHTVPFQLLARYKGLNLTEDTYKPRIYTSPTWSAFVTDSSWSARKSQLVYQSRRGPLVKYSSDYFQAPSDYRYYPYQSFQTPQHPSFLFQDKRVSWSLVYLPTIQSCWNYGFSCSSDELPVLGLTKSGGSDRTIAYENKALMLCEGLFVADVTDFEGWKAAIPSALDTNSSKSTSSFPCPAGHFNGFRTVIRPFYLTNSSGVD [LGALS3BP],1.36,2.15,-0.127,54.5 °C,55.9 °C,-0.0572
MTQQPLRGVTSLRFNQDQSCFCCAMETGVRIYNVEPLMEKGHLDHEQVGSMGLVEMLHRSNLLALVGGGSSPKFSEISVLIWDDAREGKDSKEKLVLEFTFTKPVLSVRMRHDKIVIVLKNRIYVYSFPDNPRKLFEFDTRDNPKGLCDLCPSLEKQLLVFPGHKCGSLQLVDLASTKPGTSSAPFTINAHQSDIACVSLNQPGTVVASASQKGTLIRLFDTQSKEKLVELRRGTDPATLYCINFSHDSSFLCASSDKGTVHIFALKDTRLNRRSALARVGKVGPMIGQYVDSQWSLASFTVPAESACICAFGRNTSKNVNSVIAICVDGTFHKYVFTPDGNCNREAFDVYLDICDDDDF [WDR45],-0.724,-0.704,-0.0635,53.4 °C,53.6 °C,-0.26
MTRHGKNCTAGAVYTYHEKKKDTAASGYGTQNIRLSRDAVKDFDCCCLSLQPCHDPVVTPDGYLYEREAILEYILHQKKEIARQMKAYEKQRGTRREEQKELQRAASQDHVRGFLEKESAIVSRPLNPFTAKALSGTSPDDVQPGPSVGPPSKDKDKVLPSFWIPSLTPEAKATKLEKPSRTVTCPMSGKPLRMSDLTPVHFTPLDSSVDRVGLITRSERYVCAVTRDSLSNATPCAVLRPSGAVVTLECVEKLIRKDMVDPVTGDKLTDRDIIVLQRGGTGFAGSGVKLQAEKSRPVMQA [NOSIP],4.16,6.51,-0.163,45.8 °C,47.8 °C,0.262
MTSELDIFVGNTTLIDEDVYRLWLDGYSVTDAVALRVRSGILEQTGATAAVLQSDTMDHYRTFHMLERLLHAPPKLLHQLIFQIPPSRQALLIERYYAFDEAFVREVLGKKLSKGTKKDLDDISTKTGITLKSCRRQFDNFKRVFKVVEEMRGSLVDNIQQHFLLSDRLARDYAAIVFFANNRFETGKKKLQYLSFGDFAFCAELMIQNWTLGAVGEAPTDPDSQMDDMDMDLDKEFLQDLKELKVLVADKDLLDLHKSLVCTALRGKLGVFSEMEANFKNLSRGLVNVAAKLTHNKDVRDLFVDLVEKFVEPCRSDHWPLSDVRFFLNQYSASVHSLDGFRHQALWDRYMGTLRGCLLRLYHD [FIBP],-0.876,0.233,-0.13,50.3 °C,49.5 °C,-0.45
MTSFRLALIQLQISSIKSDNVTRACSFIREAATQGAKIVSLPECFNSPYGAKYFPEYAEKIPGESTQKLSEVAKECSIYLIGGSIPEEDAGKLYNTCAVFGPDGTLLAKYRKIHLFDIDVPGKITFQESKTLSPGDSFSTFDTPYCRVGLGICYDMRFAELAQIYAQRGCQLLVYPGAFNLTTGPAHWELLQRSRAVDNQVYVATASPARDDKASYVAWGHSTVVNPWGEVLAKAGTEEAIVYSDIDLKKLAEIRQQIPVFRQKRSDLYAVEMKKP [NIT2],-0.442,-1.62,-0.0539,54.5 °C,54.4 °C,0.178
MTSRSTARPNGQPQASKICQFKLVLLGESAVGKSSLVLRFVKGQFHEYQESTIGAAFLTQSVCLDDTTVKFEIWDTAGQERYHSLAPMYYRGAQAAIVVYDITNQETFARAKTWVKELQRQASPSIVIALAGNKADLANKRMVEYEEAQAYADDNSLLFMETSAKTAMNVNDLFLAIAKKLPKSEPQNLGGAAGRSRGVDLHEQSQQNKSQCCSN [RAB5B],-0.307,-2.64,-0.207,57.4 °C,58.2 °C,0.23
